Source: PMC10837013, “Synergistic induction of phytoalexins in Nicotiana attenuata by jasmonate and ethylene signaling mediated by NaWRKY70”

Target: T1, NaWRKY70 (Nicotiana attenuata, UniProt A0A1J6IGI0 1-225)
T1 chain: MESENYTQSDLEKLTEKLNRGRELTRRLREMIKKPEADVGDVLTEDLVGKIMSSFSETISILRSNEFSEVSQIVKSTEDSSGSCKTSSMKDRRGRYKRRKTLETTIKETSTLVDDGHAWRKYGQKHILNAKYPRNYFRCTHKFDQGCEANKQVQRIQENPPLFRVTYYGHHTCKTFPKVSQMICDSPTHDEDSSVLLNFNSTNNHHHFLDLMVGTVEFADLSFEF
Test: EMSA; Chemiluminescence EMSA kit (Beyotime), manufacturer's protocol; buffer, salt, pH and temperature not stated
Details: protein: recombinant; tags: GST (pGEX-4T-1); chain copies: 0; label: biotin

B1: NaF6'H1 mProbe 1 (dsDNA)
DNA 1: GGTCTCTTTAGCTCTACCAACTATTC
DNA 2: GAATAGTTGGTAGAGCTAAAGAGACC
- binding result: no binding
